One molecule from US20170306032A1 can be followed below.

The target of experiment [1] is mouse EphA2 recombinant protein (Fc chimera, R&D Systems, cat#639-A2) (mouse) (UniProt Q03145). Put plainly: end-point titration ELISA on mEphA2. A general note: An ELISA detects its analyte on a solid surface through an enzyme-linked reagent.
In experiment [2] the target is human EphA2 recombinant protein (purified human EphA2 extracellular domain) (human) (UniProt P29317). Put plainly: end-point titration ELISA on huEphA2.
Sequence of human EphA2 recombinant protein (purified human EphA2 extracellular domain) (human) (P29317 24-537): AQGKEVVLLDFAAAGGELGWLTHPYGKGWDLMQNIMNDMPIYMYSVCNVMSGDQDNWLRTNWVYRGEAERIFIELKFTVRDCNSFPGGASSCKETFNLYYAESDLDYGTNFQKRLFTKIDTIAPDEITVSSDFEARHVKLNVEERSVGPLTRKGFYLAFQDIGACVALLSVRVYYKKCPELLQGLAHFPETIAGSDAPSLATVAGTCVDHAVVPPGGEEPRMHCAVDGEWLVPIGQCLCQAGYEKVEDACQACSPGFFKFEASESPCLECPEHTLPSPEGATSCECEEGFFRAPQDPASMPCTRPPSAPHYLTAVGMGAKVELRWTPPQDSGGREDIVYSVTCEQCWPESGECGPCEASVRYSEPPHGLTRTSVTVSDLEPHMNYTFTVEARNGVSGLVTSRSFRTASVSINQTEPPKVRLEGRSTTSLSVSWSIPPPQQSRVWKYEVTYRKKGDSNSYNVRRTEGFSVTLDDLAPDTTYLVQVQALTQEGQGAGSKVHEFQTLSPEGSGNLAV
For experiment [3], the target named is human EphA2 receptor expressed on cells (HEK293-EphA2, CHO-EphA2, PC-3) (human) (UniProt P29317). Put plainly: FACS on CHO cells transfected with human EphA2.
Sequence of human EphA2 receptor expressed on cells (HEK293-EphA2, CHO-EphA2, PC-3) (human) (P29317 24-976): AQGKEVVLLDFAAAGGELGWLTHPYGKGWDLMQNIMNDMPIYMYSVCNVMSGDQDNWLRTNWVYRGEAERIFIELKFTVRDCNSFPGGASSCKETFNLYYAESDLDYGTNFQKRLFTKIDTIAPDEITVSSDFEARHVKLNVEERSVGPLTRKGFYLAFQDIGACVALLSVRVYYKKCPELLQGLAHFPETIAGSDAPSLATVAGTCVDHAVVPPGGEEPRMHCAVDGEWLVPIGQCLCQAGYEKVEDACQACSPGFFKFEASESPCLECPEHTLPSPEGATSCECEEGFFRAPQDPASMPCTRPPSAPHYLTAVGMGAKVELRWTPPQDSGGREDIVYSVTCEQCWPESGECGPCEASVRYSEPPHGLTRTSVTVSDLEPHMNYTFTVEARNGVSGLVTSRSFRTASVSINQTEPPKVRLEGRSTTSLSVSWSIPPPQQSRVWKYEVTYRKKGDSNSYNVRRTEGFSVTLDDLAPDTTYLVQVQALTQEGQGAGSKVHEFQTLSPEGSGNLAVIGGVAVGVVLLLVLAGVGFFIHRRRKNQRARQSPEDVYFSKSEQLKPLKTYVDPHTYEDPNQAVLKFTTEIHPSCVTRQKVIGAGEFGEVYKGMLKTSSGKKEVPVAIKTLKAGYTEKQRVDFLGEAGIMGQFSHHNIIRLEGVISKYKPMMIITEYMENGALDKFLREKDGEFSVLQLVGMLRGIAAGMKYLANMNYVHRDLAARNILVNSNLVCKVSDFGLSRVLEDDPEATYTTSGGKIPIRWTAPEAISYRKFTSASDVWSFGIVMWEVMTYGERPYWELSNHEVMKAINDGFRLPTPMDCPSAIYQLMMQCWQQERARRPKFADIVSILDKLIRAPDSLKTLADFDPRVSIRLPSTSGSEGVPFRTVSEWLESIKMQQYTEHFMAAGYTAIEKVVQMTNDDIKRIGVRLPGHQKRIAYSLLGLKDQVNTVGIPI
For experiment [4], the target named is human EphA2 recombinant protein (purified human EphA2 extracellular domain) (human) (UniProt P29317). The experiment is described as follows: SPR, Biacore 3000, immobilized huEphA2 extracellular domain. (In SPR one partner is held on a chip, and binding of the other changes the refractive index at the surface.)
Experiment [5] has the same target. Put plainly: SPR, Biacore 3000, immobilized huEphA2 extracellular domain, KDkinetic.
Experiment [6] has the same target. Put plainly: SPR, Biacore 3000, immobilized huEphA2 extracellular domain, KDequilibrium.
Experiment [7] addresses mouse EphA2 recombinant protein (Fc chimera, R&D Systems, cat#639-A2) (mouse) (UniProt Q03145). Put plainly: BLI, Octet Red, biotinylated mEphA2 on streptavidin sensors, steady state fit (column head prints EC50, title KD). For orientation: BLI is a label-free optical method that tracks binding on a fibre tip over time.
For experiment [8], the target named is human EphA2 recombinant protein (purified human EphA2 extracellular domain) (human) (UniProt P29317). Put plainly: BLI, Octet Red, biotinylated huEphA2 on streptavidin sensors, steady state fit (column head prints EC50, title KD).

Sequence of mouse EphA2 recombinant protein (Fc chimera, R&D Systems, cat#639-A2) (mouse) (Q03145 26-535, change not shown): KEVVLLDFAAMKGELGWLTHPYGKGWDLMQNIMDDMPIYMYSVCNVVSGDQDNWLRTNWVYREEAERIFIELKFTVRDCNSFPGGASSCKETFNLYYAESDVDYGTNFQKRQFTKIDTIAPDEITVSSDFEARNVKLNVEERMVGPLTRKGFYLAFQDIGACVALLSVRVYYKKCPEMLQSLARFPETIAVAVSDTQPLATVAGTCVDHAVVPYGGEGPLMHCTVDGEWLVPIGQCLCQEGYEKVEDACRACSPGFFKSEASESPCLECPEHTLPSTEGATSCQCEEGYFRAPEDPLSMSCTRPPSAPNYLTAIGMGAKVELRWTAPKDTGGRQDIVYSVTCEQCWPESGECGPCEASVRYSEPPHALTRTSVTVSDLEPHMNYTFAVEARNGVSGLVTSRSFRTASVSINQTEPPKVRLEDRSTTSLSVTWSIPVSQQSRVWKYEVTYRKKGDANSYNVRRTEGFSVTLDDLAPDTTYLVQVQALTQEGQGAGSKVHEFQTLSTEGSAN

B1: B6 modified CH2 domain (affinity matured, loop 1 PYLHDD, loop 2 of E10) (designed binder)
chain: GPSVFLFPPKPKDTLMISRTPEVTCVVVDPYLHDDEVKFNWYVDGAEVHHAQTKPRQYDPLYGYRVVSVLTVLHQDWLNGKEYKCKVSNKALPAPIEKTISKAK
For B1, the EC50 in experiment [1] was 3.5 nM; in experiment [2] it was 6.54 nM; in experiment [3] it was 151 nM. Besides, the koff in experiment [4] was found to be 0.0496 s⁻¹. The kon in experiment [4] was found to be 716000 M⁻¹ s⁻¹. Also, the Kd stood at 69 nM in experiment [5], 56 nM in experiment [6], 30 nM in experiment [7] and 39 nM in experiment [8].

In general, EC50 refers to the midpoint of the concentration-response curve. One may read the koff as the first-order rate constant of dissociation. As a reminder, the kon is the rate constant with which the complex forms. The term Kd denotes a measure of binding affinity in units of concentration.
